Values quoted from earlier work, collected in PMC3061301.
pKd: −log10 of the molar value.

Molecular target: PTP-BL (Mus musculus) (UniProt Q64512)
Assay: surface plasmon resonance

UniProt Q64512, sequence (Q64512 whole entry): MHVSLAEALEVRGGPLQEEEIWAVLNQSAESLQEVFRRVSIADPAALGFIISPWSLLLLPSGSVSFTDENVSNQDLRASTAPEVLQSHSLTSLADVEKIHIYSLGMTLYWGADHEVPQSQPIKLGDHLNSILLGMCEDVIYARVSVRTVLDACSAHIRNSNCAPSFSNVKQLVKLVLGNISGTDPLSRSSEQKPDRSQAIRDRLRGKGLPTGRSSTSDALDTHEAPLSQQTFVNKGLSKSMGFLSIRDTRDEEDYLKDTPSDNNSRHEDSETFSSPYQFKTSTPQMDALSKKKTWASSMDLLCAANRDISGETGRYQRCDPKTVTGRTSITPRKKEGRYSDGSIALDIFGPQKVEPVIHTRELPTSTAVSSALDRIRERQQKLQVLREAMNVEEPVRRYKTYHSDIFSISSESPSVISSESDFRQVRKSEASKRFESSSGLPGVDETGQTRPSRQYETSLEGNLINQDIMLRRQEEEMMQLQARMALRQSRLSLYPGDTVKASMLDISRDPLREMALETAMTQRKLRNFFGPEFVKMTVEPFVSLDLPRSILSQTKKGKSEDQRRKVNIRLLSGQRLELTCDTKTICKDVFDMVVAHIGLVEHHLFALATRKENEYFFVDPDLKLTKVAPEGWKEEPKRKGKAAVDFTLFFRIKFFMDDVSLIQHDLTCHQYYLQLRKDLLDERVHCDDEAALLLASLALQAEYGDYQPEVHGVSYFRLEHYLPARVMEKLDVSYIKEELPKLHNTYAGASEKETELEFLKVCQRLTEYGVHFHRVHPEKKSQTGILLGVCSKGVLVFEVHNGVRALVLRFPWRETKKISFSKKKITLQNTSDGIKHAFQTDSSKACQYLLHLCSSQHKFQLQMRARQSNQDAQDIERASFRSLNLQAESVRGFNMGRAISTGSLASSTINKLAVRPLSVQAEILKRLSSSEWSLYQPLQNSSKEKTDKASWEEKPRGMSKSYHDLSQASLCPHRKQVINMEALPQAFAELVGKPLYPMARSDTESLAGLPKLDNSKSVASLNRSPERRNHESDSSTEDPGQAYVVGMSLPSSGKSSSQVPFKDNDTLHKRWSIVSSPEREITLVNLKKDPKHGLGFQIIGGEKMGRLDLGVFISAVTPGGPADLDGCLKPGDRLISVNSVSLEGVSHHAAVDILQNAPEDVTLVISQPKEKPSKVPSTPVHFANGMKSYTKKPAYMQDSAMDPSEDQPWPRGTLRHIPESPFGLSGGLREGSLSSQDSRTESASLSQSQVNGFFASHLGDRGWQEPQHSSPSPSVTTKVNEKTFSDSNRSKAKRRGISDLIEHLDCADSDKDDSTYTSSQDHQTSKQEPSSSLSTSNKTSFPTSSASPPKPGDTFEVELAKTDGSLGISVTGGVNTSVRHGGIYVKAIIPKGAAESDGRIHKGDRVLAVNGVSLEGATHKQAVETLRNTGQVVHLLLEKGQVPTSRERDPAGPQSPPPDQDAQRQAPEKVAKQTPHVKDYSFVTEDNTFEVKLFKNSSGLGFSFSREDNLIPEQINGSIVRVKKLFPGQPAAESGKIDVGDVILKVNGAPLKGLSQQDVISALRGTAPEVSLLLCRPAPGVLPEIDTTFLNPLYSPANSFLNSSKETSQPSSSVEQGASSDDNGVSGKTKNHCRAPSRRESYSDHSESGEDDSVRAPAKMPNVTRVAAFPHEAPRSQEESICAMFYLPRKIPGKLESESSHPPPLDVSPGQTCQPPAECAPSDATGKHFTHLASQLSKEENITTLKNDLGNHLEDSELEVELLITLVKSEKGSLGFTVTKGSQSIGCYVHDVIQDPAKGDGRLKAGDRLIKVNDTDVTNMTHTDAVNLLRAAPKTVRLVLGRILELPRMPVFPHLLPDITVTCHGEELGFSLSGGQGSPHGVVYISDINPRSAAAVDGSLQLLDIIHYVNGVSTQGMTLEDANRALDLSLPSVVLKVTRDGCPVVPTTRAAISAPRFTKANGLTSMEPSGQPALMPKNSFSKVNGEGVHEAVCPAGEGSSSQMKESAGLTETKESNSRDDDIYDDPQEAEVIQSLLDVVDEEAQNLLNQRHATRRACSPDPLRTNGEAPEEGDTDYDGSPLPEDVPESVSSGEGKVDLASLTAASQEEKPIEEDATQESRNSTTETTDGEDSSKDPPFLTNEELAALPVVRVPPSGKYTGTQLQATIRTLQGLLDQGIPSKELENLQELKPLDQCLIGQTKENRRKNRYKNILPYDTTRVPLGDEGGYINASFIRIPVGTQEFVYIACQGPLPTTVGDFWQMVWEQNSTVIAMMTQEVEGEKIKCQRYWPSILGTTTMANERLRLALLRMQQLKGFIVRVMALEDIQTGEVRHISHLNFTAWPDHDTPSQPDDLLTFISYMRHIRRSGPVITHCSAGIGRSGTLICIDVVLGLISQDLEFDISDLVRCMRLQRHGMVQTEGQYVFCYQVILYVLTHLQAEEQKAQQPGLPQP

pKd: 8.10
Substance: APC C-terminal 19 amino acids (from UniProt P25054)
